Measurements published in US12291504B2, “Small molecule inhibition of sulfotransferase SULT1A3” (University of Pittsburgh—Of the Commonwealth System of …, priority 2018, dated 2025).

Test system: Oc1ccc2ccc3cccc4ccc1c2c34
Assay: purified protein, by the assay type
Settings: saturating PAPS (500 μM), 25.0 °C
Protocol: Covalent Tagging of SULT1A3 Cys Constructs. Labeling of the SULT1A3 Cys constructs was performed as described previously (17,18,21). Briefly, 3-maleimido-PROXYL (spin label) or N-cyclohexylmaleimide (diamagnetic control) was added to an enzyme containing solution at 20-fold excess over reactive Cys. Unreacted Cys was monitored using DNTB (17,18,21); reactions were considered complete when >98% of the Cys was labeled. Reaction conditions: SULT1A3 (50 μM, monomer), 3-maleimido-PROXYL or N-cyclohexylmaleimide (1.0 mM), PAP (0.50 mM), KPO4 (50 mM), pH 7.5, 4±2° C. To prepare samples for NMR, reaction mixtures were dialyzed three times against 40 volumes of PAP (0.50 mM), KPO4 (50 mM), pD 7.4, D2O (>95%), 4±2° C.
Initial-Rate Studies. Initial-rate parameters for the labeled or mutant SULT1A3 constructs were determined using a previously described 1-HP assay (25). […] Reactions were monitored via fluorescence change associated with the conversion of 1-HP to 1-HP-S (λex=325 nm, λem=370 nm). Keq for the 1-HP sulfonation reaction is −250. Given the reaction conditions outlined above, ≥99% of 1-HP is converted to 1-HP-S, and ˜0.4% of PAPS is converted to PAP at equilibrium. […] Reaction progress curves were analyzed to obtain initial-rate parameters as described previously (26,27).
Inhibition studies. Inhibition parameters were determined under conditions identical to those described above (see, Initial-Rate Studies) except that [1-HP] was increased to 5.0 μM (˜61×Km) and inhibitor concentration was varied between 0.20-20×Ki. Ki was obtained using a least-squares fit to the following partial inhibition equation (25,28): v=kcat·(Ki+(1/kcat inh)·[I])/(Ki+[I]), where kcat inh is enzyme turnover at saturating substrates and allosteric inhibitor.

Question: How did the Km (other: spin label at Cys 116) turn out when “SULT1A3 spin-labeled at Cys 116 (Homo sapiens; Q116C)” was run?
Answer: 87 (3) nM

Question: And the kcat (other: spin label at Cys 116)?
Answer: 1.83 s⁻¹

Question: With “SULT1A3 spin-labeled at Cys 234 (Homo sapiens; K234C)” as the substance, how does the Km (other: spin label at Cys 234) read?
Answer: 84 (3) nM

Question: And the kcat (other: spin label at Cys 234)?
Answer: 1.82 s⁻¹

Question: How did the Km (other: spin label at Cys 198) turn out when “SULT1A3 spin-labeled at Cys 198 (Homo sapiens; E198C)” was run?
Answer: 88 (2) nM

Question: And the kcat (other: spin label at Cys 198)?
Answer: 1.8 s⁻¹
